These results are taken from patent US20250340613A1 (JOINT STOCK COMPANY BIOCAD, published 2025).

Usually Kd stands for the constant that tells how readily two partners part at equilibrium. Usually koff stands for the rate constant with which the complex falls apart. A word on the kon: it is a measure of how fast the partners come together. A low value points to slower complex formation.

Assay [1] addresses T1, hIL4R-His, Interleukin-4 receptor subunit alpha (Homo sapiens) aa 27-227 (Homo sapiens, UniProt P24394 27-227).
T1 construct: range 27-227; not shown: His tag as the name implies
T1 sequence (looked up): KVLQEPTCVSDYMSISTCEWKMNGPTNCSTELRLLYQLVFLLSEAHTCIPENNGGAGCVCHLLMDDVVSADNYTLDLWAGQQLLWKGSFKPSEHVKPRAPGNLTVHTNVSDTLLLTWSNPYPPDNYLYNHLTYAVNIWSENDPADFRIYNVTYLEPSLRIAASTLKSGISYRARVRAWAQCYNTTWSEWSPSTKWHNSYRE
As to the kind of experiment: BLI Octet RED 384; antibody on ProA sensor, antigen 30 ug/ml (1154 nM); response at end of association. How it is done:
(§1) Experimental study of nonspecific binding of bispecific chimeric antibodies to non-target antigens was performed on Forte Bio Octert RED 384. Protein A (ProA) biosensors (ForteBio) were immersed into a solution containing antibodies at a concentration of 10 μg/ml for 150 seconds to immobilize same. The baseline was recorded in a 1×KB solution for 30 seconds. The antibody-loaded sensors were then immersed into wells containing non-target antigens at a concentration of 30 μg/ml for 150 seconds. Complex dissociation was then recorded for 30 seconds.
(§2) The reference sensors went through all the steps as the sensors used to record analyte sensograms did, with the exception of the association step—at the association step, the sensors were immersed in a kinetic buffer solution without analyte (the reference sensor signals were measured in parallel with the recording of the main sensograms). The reference signal was subtracted from the signal received on sensors interacting with the analyte during the processing of sensograms.
(§3) Sensograms were processed using ForteBio Octet Data Analysisn 9.0 software. To report no non-specific interaction, the recorded signal level was checked at the end of the association step (the response parameter).
In general terms: BLI is a label-free optical method that tracks binding on a fibre tip over time.

Assay [2] addresses T2, hCD38-Avi, ADP-ribosyl cyclase/cyclic ADP-ribose hydrolase 1 (Homo sapiens) aa 43-300 (Homo sapiens, UniProt P28907 43-300).
T2 construct: range 43-300; not shown: Avi tag as the name implies
T2 sequence (looked up): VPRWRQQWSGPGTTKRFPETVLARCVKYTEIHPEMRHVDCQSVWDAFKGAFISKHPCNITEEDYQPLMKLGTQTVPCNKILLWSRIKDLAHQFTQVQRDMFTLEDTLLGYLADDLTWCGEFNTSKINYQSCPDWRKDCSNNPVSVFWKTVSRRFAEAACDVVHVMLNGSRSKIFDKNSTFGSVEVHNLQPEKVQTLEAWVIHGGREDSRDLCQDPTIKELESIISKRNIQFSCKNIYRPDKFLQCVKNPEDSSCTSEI
As to the kind of experiment: BLI Octet RED 384; antibody on ProA sensor, antigen 30 ug/ml.

Assay [3] deals with T3, C-Avi-His-TEVs-HSA_hBCMA, Tumor necrosis factor receptor superfamily member 17 (Homo sapiens) aa 1-54 (Homo sapiens, UniProt Q02223 1-54).
T3 construct: range 1-54; not shown: Avi, His, TEV site and HSA parts as the name implies
T3 sequence (looked up): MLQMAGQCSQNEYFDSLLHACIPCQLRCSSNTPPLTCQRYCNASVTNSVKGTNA
The assay is described as above.

The target in assay [4] is T4, IL5R-His, Interleukin-5 receptor subunit alpha (Homo sapiens) aa 22-342 (Homo sapiens, UniProt Q01344 22-342).
T4 construct: not shown: His tag as the name implies
T4 sequence (looked up): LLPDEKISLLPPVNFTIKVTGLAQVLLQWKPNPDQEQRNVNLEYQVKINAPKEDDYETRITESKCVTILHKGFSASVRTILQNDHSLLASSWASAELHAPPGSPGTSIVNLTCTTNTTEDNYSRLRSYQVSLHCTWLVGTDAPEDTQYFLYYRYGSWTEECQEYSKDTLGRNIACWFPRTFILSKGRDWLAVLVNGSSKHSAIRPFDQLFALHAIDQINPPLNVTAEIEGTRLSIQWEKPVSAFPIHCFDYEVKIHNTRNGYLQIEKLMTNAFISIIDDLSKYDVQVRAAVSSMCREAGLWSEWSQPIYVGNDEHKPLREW
The description is as above.

Assay [5] has as its target T5, extracellular domain of the human PD-1 protein (hPD1ex-H6F) (Homo sapiens, UniProt Q15116 21-170).
T5 construct: Molecular weight 20.6 kDa; made in CHO cells; also called hPDlex-H6F; not shown: C-terminal His and FLAG tags
Description: BLI Octet RED 384; antibody on ProA sensor, antigen in solution; 1:1 global fit. How it is done:
The experiments were carried out using a kinetic buffer solution (hereinafter referred to as 1×KB) having the following formulation: 4.3 mM Na₂HPO₄; 136.9 mM NaCl, 1.5 mM KH₂PO₄; 2.7 mM KCl; the volume fraction of the added Tween 20 was 0.1%; the mass fraction of the added BSA (bovine serum albumin) was 0.1%; pH 7.4. Before the measurement, the ProA sensors were regenerated with a solution of 50 mM glycine and hydrochloric acid, pH 1.8 (5 seconds in the regenerating solution, 5 seconds in 1×KB, three repetitions). In the case of the hPD1ex-H6F and hCSF1R_His antigens, the Protein A (ProA) biosensors (ForteBio) were immersed in a solution with antibodies at a concentration of 10 μg/ml for 60 seconds to immobilize same. The baseline was recorded in 1×KB for 60 seconds. The sensors loaded with the antibody were then immersed into wells containing a solution of the target antigen (analyte) in a kinetic buffer for 90 seconds. Measurements were performed for solutions with hPDlex-H6F analyte at concentrations of 2.50 μg/ml (121.4 nM), 1.25 μg/ml (60.7 nM), 0.625 μg/ml (30.35 nM). […] Then we detected complex dissociation in 1×KB for 210 s for hPDlex-H6F, 300 s for hCSF1R_His.
All measurements were carried out at 30° C., orbital mixing speed was 1,000 revolutions per minute.
To obtain numerical values of kinetic constants (kₒₙ is the on/association rate constant, kdis is the dissociation rate constant, KD is the equilibrium dissociation constant or affinity constant), the resulting sensograms were processed according to the 1:1 interaction model using Global Fit (selection of one set of kon, kdis, KD constants to analyze several sensograms of different concentrations) of the ForteBio Octet Data Analysis 9.0 software.

Assay [6] has as its target T2, hCD38-Avi, ADP-ribosyl cyclase/cyclic …. As to the kind of experiment: BLI Octet RED 384; antibody on ProA sensor, antigen 30 ug/ml (854.7 nM); response at end of association. How it is done:
as §1, §2, §3

T5 sequence (Q15116 21-170 limits assumed, form in doubt): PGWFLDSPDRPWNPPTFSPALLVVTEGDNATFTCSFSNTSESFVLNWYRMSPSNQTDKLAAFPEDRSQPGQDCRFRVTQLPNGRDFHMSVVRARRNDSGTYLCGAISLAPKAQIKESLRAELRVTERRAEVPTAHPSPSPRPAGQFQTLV

B1: 02-006, bivalent bispecific chimeric antibody that specifically binds to PD1 and CSF1R (bispecific antibody, human IgG1, kappa, L234A L235A)
heavy 1: QVQLVQSGGGLVQPGGSLRLSCAASGFTFSSYWMYWVRQVPGKGLEWVSAIDTGGGRTYYADSVKGRFAISRVNAKNTMYLQMNSLRAEDTAVYYCARDEGGGTGWGVLKDWPYGLDAWGQGTLVTVSSASTKGPSVFPLAPSSKSTSGGTAALGCLVKDYFPEPVTVSWNSGALTSGVHTFPAVLQSSGLYSLSSVVTVPSSSLGTQTYICNVNHKPSNTKVDKRVEPKSCDKTHTCPPCPAPEAAGGPSVFLFPPKPKDTLYITREPEVTCVVVDVSHEDPEVKFNWYVDGVEVHNAKTKPREEQYNSTYRVVSVLTVLHQDWLNGKEYKCKVSNKALPAPIEKTISKAKGQPREPQVCTLPPSRDELTKNQVSLSCAVKGFYPSDIAVEWESNGQPENNYKTTPPVLDSDGSFFLVSKLTVDKSRWQQGNVFSCSVMHEALHNHYTQKSLSLSPGK
light 1: QPVLTQPLSVSVALGQTARITCGGNNIGSKNVHWYQQKPGQAPVLVIYRDSNRPSGIPERFSGSNSGNTATLTISRAQAGDEADYYCQVWDSSTAVFGTGTKLTVLQRTVAAPSVFIFPPSDEQLKSGTASVVCLLNNFYPREAKVQWKVDNALQSGNSQESVTEQDSKDSTYSLSSTLTLSKADYEKHKVYACEVTHQGLSSPVTKSFNRGEC
heavy 2: not shown
light 2: QAGLTQPPSVSVAPGQTARITCGGNNIGSKSVHWYQQKPGQAPVLVVYGDSDRPSGIPERFSGSNSGNTATLTISRVEAGDEADYYCQVWDISSDHVVFGGGTQLTVLQRQVKPEAWLSSGPSPGPGRLQLVCHVSGFYPKPVWVMWMRGEQEQQGTQLGDILPNANWTWYLRATLDVADGEAAGLSCRVKHSSLEGQDIILYWRGSC
notes: Produced in CHO cells
As to B1, the “Signal level (nm)” value in assay [1] was -0.0075 nm; in assay [6], 0.0158 nm. Further, the values for the binding result in assay [2], in assay [3] and in assay [4] were “no binding (tested: 854.7 nM)”, “no binding (tested: 391.2 nM)” and “no binding (tested: 757.6 nM)”, respectively. Besides, the Kd in assay [5] turned out to be 2.51 nM. For the same molecule, the off-rate (koff) in assay [5] is 0.000691 s⁻¹. The molecule further registered an on-rate constant (kon) in assay [5] of 275000 M⁻¹ s⁻¹.

B2: 02-005, bivalent bispecific chimeric antibody that specifically binds to PD1 and CD20 (bispecific antibody, human IgG1, kappa, L234A L235A)
heavy 1: EVQLVESGGGLVQPGGSLRLSCAASGYTFTSYNMHWVRQAPGKGLEWVGAIYPGNGDTSYNQKFKGRFTISVDKSKNTLYLQMNSLRAEDTAVYYCARVVYYSNSYWYFDVWGQGTLVTVSSASTKGPSVFPLAPSSKSTSGGTAALGCLVKDYFPEPVTVSWNSGALTSGVHTFPAVLQSSGLYSLSSVVTVPSSSLGTQTYICNVNHKPSNTKVDKRVEPKSCDKTHTCPPCPAPEAAGGPSVFLFPPKPKDTLYITREPEVTCVVVDVSHEDPEVKFNWYVDGVEVHNAKTKPREEQYNSTYRVVSVLTVLHQDWLNGKEYKCKVSNKALPAPIEKTISKAKGQPREPQVCTLPPSRDELTKNQVSLSCAVKGFYPSDIAVEWESNGQPENNYKTTPPVLDSDGSFFLVSKLTVDKSRWQQGNVFSCSVMHEALHNHYTQKSLSLSPGK
light 1: DIQMTQSPSSLSASVGDRVTITCRASSSVSYMHWYQQKPGKAPKPLIYAPSNLASGVPSRFSGSGSGTDFTLTISSLQPEDFATYYCQQWSFNPPTFGQGTKVEIKRTVAAPSVFIFPPSDEQLKSGTASVVCLLNNFYPREAKVQWKVDNALQSGNSQESVTEQDSKDSTYSLSSTLTLSKADYEKHKVYACEVTHQGLSSPVTKSFNRGEC
heavy 2: not shown
light 2: QPVLTQPLSVSVALGQTARITCGGNNIGSKNVHWYQQKPGQAPVLVIYRDSNRPSGIPERFSGSNSGNTATLTISRAQAGDEADYYCQVWDSSTAVFGTGTKLTVLQQRQVKPEAWLSSGPSPGPGRLQLVCHVSGFYPKPVWVMWMRGEQEQQGTQLGDILPNANWTWYLRATLDVADGEAAGLSCRVKHSSLEGQDIILYWRGSC
notes: Produced in CHO cells
Turning to B2, the “Signal level (nm)” value in assay [1] is -0.0057 nm; in assay [6], 0.0072 nm. In addition, the binding result is given as “no binding (tested: 854.7 nM)” in assay [2], “no binding (tested: 391.2 nM)” in assay [3] and “no binding (tested: 757.6 nM)” in assay [4]. In assay [5], this molecule yielded a Kd of 5.69 nM. In assay [5], the koff came out at 0.00101 s⁻¹. Also, in assay [5], the kon amounted to 178000 M⁻¹ s⁻¹.

B3: 02-007, bivalent bispecific chimeric antibody that specifically binds to PD1 and CSF1R (bispecific antibody, human IgG1, kappa, L234A L235A)
heavy 1: QVQLVESGGGLVRPGGSLRLSCAASEFTFDDYAMSWVRQAPGKGLEWVSAISWNGGSTNYADSVKGRFTISRDNAKNSLYLQMNSLRAEDTALYYCASTVEVAHRRLYKYLEVWGQGTLVTVSSASTKGPSVFPLAPSSKSTSGGTAALGCLVKDYFPEPVTVSWNSGALTSGVHTFPAVLQSSGLYSLSSVVTVPSSSLGTQTYICNVNHKPSNTKVDKRVEPKSCDKTHTCPPCPAPEAAGGPSVFLFPPKPKDTLYITREPEVTCVVVDVSHEDPEVKFNWYVDGVEVHNAKTKPREEQYNSTYRVVSVLTVLHQDWLNGKEYKCKVSNKALPAPIEKTISKAKGQPREPQVCTLPPSRDELTKNQVSLSCAVKGFYPSDIAVEWESNGQPENNYKTTPPVLDSDGSFFLVSKLTVDKSRWQQGNVFSCSVMHEALHNHYTQKSLSLSPGK
light 1: QAGLTQPPSVSVAPGQTARITCGGNNIGSKSVHWYQQKPGQAPVLVVYGDSDRPSGIPERFSGSNSGNTATLTISRVEAGDEADYYCQVWDISSDHVVFGGGTQLTVLRTVAAPSVFIFPPSDEQLKSGTASVVCLLNNFYPREAKVQWKVDNALQSGNSQESVTEQDSKDSTYSLSSTLTLSKADYEKHKVYACEVTHQGLSSPVTKSFNRGEC
heavy 2: not shown
light 2: QPVLTQPLSVSVALGQTARITCGGNNIGSKNVHWYQQKPGQAPVLVIYRDSNRPSGIPERFSGSNSGNTATLTISRAQAGDEADYYCQVWDSSTAVFGTGTKLTVLQQRQVKPEAWLSSGPSPGPGRLQLVCHVSGFYPKPVWVMWMRGEQEQQGTQLGDILPNANWTWYLRATLDVADGEAAGLSCRVKHSSLEGQDIILYWRGSC
notes: Produced in CHO cells
With B3, the “Signal level (nm)” value came to 0.0051 nm in assay [1] and 0.0088 nm in assay [6]. For the same molecule, the values for the binding result in assay [2], in assay [3] and in assay [4] were “no binding (tested: 854.7 nM)”, “no binding (tested: 391.2 nM)” and “no binding (tested: 757.6 nM)”, respectively. The Kd in assay [5] worked out at 4.49 nM. Further, in assay [5], the koff was found to be 0.00109 s⁻¹. Further, the kon in assay [5] amounted to 242000 M⁻¹ s⁻¹.
